The target of this test is FLAG-tagged USF-1 (wild type, overexpressed in cells) (UniProt P22415). Put plainly: cell-based or functional assay.
UniProt P22415, sequence (P22415 whole entry): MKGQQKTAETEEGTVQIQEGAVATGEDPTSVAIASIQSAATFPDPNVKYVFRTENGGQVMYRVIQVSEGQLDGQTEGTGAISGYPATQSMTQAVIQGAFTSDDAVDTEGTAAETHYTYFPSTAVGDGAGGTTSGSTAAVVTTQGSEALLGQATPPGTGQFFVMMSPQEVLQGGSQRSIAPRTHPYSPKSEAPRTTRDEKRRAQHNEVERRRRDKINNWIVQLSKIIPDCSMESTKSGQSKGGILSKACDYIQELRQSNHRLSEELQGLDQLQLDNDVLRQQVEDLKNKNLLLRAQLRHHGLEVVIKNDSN

Substance “P/CAF, overexpressed in cells (from UniProt Q92831 1-832) (enzyme)” yielded an FAS promoter activity (-444 FAS-Luc reporter) of 2 fold.
In turn, “HDAC9, overexpressed in cells (from UniProt Q9UKV0 1-1011) (enzyme)” came in with an FAS promoter activity (-444 FAS-Luc reporter) of 50 % decrease.
